Source: patent US20250388669A1 (published 2025)

T1: B7H3 (human, UniProt Q5ZPR3 29-466, limits assumed)
T1 sequence (looked up): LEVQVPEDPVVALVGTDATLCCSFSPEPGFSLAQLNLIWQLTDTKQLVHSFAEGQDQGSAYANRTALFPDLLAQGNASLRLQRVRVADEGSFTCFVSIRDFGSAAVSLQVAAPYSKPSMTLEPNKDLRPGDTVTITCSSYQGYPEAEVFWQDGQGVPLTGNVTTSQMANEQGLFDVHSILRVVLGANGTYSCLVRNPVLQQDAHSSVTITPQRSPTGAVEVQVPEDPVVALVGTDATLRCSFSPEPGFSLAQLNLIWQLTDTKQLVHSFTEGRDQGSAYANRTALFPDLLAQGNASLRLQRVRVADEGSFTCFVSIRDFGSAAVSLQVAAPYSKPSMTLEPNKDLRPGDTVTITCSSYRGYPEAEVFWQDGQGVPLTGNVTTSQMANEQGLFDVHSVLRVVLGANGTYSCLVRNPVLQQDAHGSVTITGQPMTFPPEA

B1: Ly1612 (antibody, V domains shown)
VH: QVQLVQSGAEVKKPGASVKVSCKASGYTFTSYVMHWVRQKPGQGLEWIGYINPYNEGTESTDKFKGRATMTSDKSTSTVYMELSSLRSEDTAVYYCASIYYGYEGTYFGVWGQGTLVTVSS
VL: EIVLTQSPATLSLSPGERATLSCRASSSVSYMHWYQQKPGQAPRPWIYATSNLASGIPARFSGSRSGTDYTLTISSLEPEDFAVYYCQQWSSNTLTFGGGTKVEIK
notes: Parent mAb; also called Anti-B7H3 Ly1612; B7H3 mAb
B2: Ly2364 (other)
chain 1: QVQLVQSGAEVKKPGASVKVSCKASGYTFTSYVMHWVRQKPGQGLEWIGYINPYNEGTESTDKFKGRATMTSDKSTSTVYMELSSLRSEDTAVYYCASIYYGYEGTYFGVWGQGTLVTVSSASTKGPSVFPLAPSSKSTSGGTAALGCLVKDYFPEPVTVSWNSGALTSGVHTFPAVLQSSGLYSLSSVVTVPSSSLGTQTYICNVNHKPSNTKVDKKVEPKSCGGGGSGGGGSGGGGSGGGGSGGGGSEVQLVESGGGLVQPGGSLRLSCAASGFTFSTYAMNWVRQAPGKGLEWVGRIRSKYNNYATYYADSVKGRFTISRDDSKNSLYLQMNSLKTEDTAVYYCVRHGNFGNSYVSWFAYWGQGTLVTVSSGGGGSDKTHTCPPCPAPEAAGPSVFLFPPKPKDTLMISRTPEVTCVVVDVSHEDPEVKFNWYVDGVEVHNAKTKPREEQYNSTYRVVSVLTVLHQDWLNGKEYKCKVSNKALPAPIEKTISKAKGQPREPQVYTLPPSREEMTKNQVSLWCLVKGFYPSDIAVEWESNGQPENNYKTTPPVLDSDGSFFLYSKLTVDKSRWQQGNVFSCSVMHEALHNHYTQKSLSLSPGGGGGSGGGGSGGGGSGGGGSQVQLVQSGAEVKKPGASVKVSCKASGYTFAGFEMHWVRQAPGQGLEWMGAIDPKTGGTDYNQKFKDRVTMTRDTSISTAYMELSRLRSDDTAVYYCARDLGYFDVWGQGTLVTVSS
chain 2: QVQLVQSGAEVKKPGASVKVSCKASGYTFTSYVMHWVRQKPGQGLEWIGYINPYNEGTESTDKFKGRATMTSDKSTSTVYMELSSLRSEDTAVYYCASIYYGYEGTYFGVWGQGTLVTVSSASTKGPSVFPLAPSSKSTSGGTAALGCLVKDYFPEPVTVSWNSGALTSGVHTFPAVLQSSGLYSLSSVVTVPSSSLGTQTYICNVNHKPSNTKVDKKVEPKSCGGGGSGGGGSGGGGSGGGGSGGGGSQAVVTQEPSLTVSPGGTVTLTCRSSTGAVTTSNYANWVQQKPGQAPRGLIGGTNKRAPWTPARFSGSLLGGKAALTITGAQAEDEADYYCALWYSNLWVFGGGTKLTVLGGGGSDKTHTCPPCPAPEAAGPSVFLFPPKPKDTLMISRTPEVTCVVVDVSHEDPEVKFNWYVDGVEVHNAKTKPREEQYNSTYRVVSVLTVLHQDWLNGKEYKCKVSNKALPAPIEKTISKAKGQPREPQVYTLPPSREEMTKNQVSLSCAVKGFYPSDIAVEWESNGQPENNYKTTPPVLDSDGSFFLVSKLTVDKSRWQQGNVFSCSVMHEALHNRFTQKSLSLSPGGGGGSGGGGSGGGGSGGGGSDIQMTQSPSSLSASVGDRVTITCRASQDIRSNLNWYQQKPGGAVKLLIYYTSRLHSGVPSRFSGSGSGTDYTLTISSLQPEDFATYFCQQSEKLPRTFGGGTKVEIR
light: EIVLTQSPATLSLSPGERATLSCRASSSVSYMHWYQQKPGQAPRPWIYATSNLASGIPARFSGSRSGTDYTLTISSLEPEDFAVYYCQQWSSNTLTFGGGTKVEIKRTVAAPSVFIFPPSDEQLKSGTASVVCLLNNFYPREAKVQWKVDNALQSGNSQESVTEQDSKDSTYSLSSTLTLSKADYEKHKVYACEVTHQGLSSPVTKSFNRGEC
notes: Tri-specific antibody: B7H3 Fabs, central CD3 Fv, terminal CD137 Fv; Flexible linker is (G4S)5
B3: Ly2365 (other)
chain 1: QVQLVQSGAEVKKPGASVKVSCKASGYTFTSYVMHWVRQKPGQGLEWIGYINPYNEGTESTDKFKGRATMTSDKSTSTVYMELSSLRSEDTAVYYCASIYYGYEGTYFGVWGQGTLVTVSSASTKGPSVFPLAPSSKSTSGGTAALGCLVKDYFPEPVTVSWNSGALTSGVHTFPAVLQSSGLYSLSSVVTVPSSSLGTQTYICNVNHKPSNTKVDKKVEPKSCGGGGSGGGGSGGGGSEVQLVESGGGLVQPGGSLRLSCAASGFTFSTYAMNWVRQAPGKGLEWVGRIRSKYNNYATYYADSVKGRFTISRDDSKNSLYLQMNSLKTEDTAVYYCVRHGNFGNSYVSWFAYWGQGTLVTVSSGGGGSDKTHTCPPCPAPEAAGPSVFLFPPKPKDTLMISRTPEVTCVVVDVSHEDPEVKFNWYVDGVEVHNAKTKPREEQYNSTYRVVSVLTVLHQDWLNGKEYKCKVSNKALPAPIEKTISKAKGQPREPQVYTLPPSREEMTKNQVSLWCLVKGFYPSDIAVEWESNGQPENNYKTTPPVLDSDGSFFLYSKLTVDKSRWQQGNVFSCSVMHEALHNHYTQKSLSLSPGGGGGSGGGGSGGGGSGGGGSQVQLVQSGAEVKKPGASVKVSCKASGYTFAGFEMHWVRQAPGQGLEWMGAIDPKTGGTDYNQKFKDRVTMTRDTSISTAYMELSRLRSDDTAVYYCARDLGYFDVWGQGTLVTVSS
chain 2: QVQLVQSGAEVKKPGASVKVSCKASGYTFTSYVMHWVRQKPGQGLEWIGYINPYNEGTESTDKFKGRATMTSDKSTSTVYMELSSLRSEDTAVYYCASIYYGYEGTYFGVWGQGTLVTVSSASTKGPSVFPLAPSSKSTSGGTAALGCLVKDYFPEPVTVSWNSGALTSGVHTFPAVLQSSGLYSLSSVVTVPSSSLGTQTYICNVNHKPSNTKVDKKVEPKSCGGGGSGGGGSGGGGSQAVVTQEPSLTVSPGGTVTLTCRSSTGAVTTSNYANWVQQKPGQAPRGLIGGTNKRAPWTPARFSGSLLGGKAALTITGAQAEDEADYYCALWYSNLWVFGGGTKLTVLGGGGSDKTHTCPPCPAPEAAGPSVFLFPPKPKDTLMISRTPEVTCVVVDVSHEDPEVKFNWYVDGVEVHNAKTKPREEQYNSTYRVVSVLTVLHQDWLNGKEYKCKVSNKALPAPIEKTISKAKGQPREPQVYTLPPSREEMTKNQVSLSCAVKGFYPSDIAVEWESNGQPENNYKTTPPVLDSDGSFFLVSKLTVDKSRWQQGNVFSCSVMHEALHNRFTQKSLSLSPGGGGGSGGGGSGGGGSGGGGSDIQMTQSPSSLSASVGDRVTITCRASQDIRSNLNWYQQKPGGAVKLLIYYTSRLHSGVPSRFSGSGSGTDYTLTISSLQPEDFATYFCQQSEKLPRTFGGGTKVEIR
light: B2 light
notes: Tri-specific antibody: B7H3 Fabs, central CD3 Fv, terminal CD137 Fv; Flexible linker is (G4S)3
B4: Ly2366 (other)
chain 1: QVQLVQSGAEVKKPGASVKVSCKASGYTFTSYVMHWVRQKPGQGLEWIGYINPYNEGTESTDKFKGRATMTSDKSTSTVYMELSSLRSEDTAVYYCASIYYGYEGTYFGVWGQGTLVTVSSASTKGPSVFPLAPSSKSTSGGTAALGCLVKDYFPEPVTVSWNSGALTSGVHTFPAVLQSSGLYSLSSVVTVPSSSLGTQTYICNVNHKPSNTKVDKKVEPKSCGGGGSGGGGSEVQLVESGGGLVQPGGSLRLSCAASGFTFSTYAMNWVRQAPGKGLEWVGRIRSKYNNYATYYADSVKGRFTISRDDSKNSLYLQMNSLKTEDTAVYYCVRHGNFGNSYVSWFAYWGQGTLVTVSSGGGGSDKTHTCPPCPAPEAAGPSVFLFPPKPKDTLMISRTPEVTCVVVDVSHEDPEVKFNWYVDGVEVHNAKTKPREEQYNSTYRVVSVLTVLHQDWLNGKEYKCKVSNKALPAPIEKTISKAKGQPREPQVYTLPPSREEMTKNQVSLWCLVKGFYPSDIAVEWESNGQPENNYKTTPPVLDSDGSFFLYSKLTVDKSRWQQGNVFSCSVMHEALHNHYTQKSLSLSPGGGGGSGGGGSGGGGSGGGGSQVQLVQSGAEVKKPGASVKVSCKASGYTFAGFEMHWVRQAPGQGLEWMGAIDPKTGGTDYNQKFKDRVTMTRDTSISTAYMELSRLRSDDTAVYYCARDLGYFDVWGQGTLVTVSS
chain 2: QVQLVQSGAEVKKPGASVKVSCKASGYTFTSYVMHWVRQKPGQGLEWIGYINPYNEGTESTDKFKGRATMTSDKSTSTVYMELSSLRSEDTAVYYCASIYYGYEGTYFGVWGQGTLVTVSSASTKGPSVFPLAPSSKSTSGGTAALGCLVKDYFPEPVTVSWNSGALTSGVHTFPAVLQSSGLYSLSSVVTVPSSSLGTQTYICNVNHKPSNTKVDKKVEPKSCGGGGSGGGGSQAVVTQEPSLTVSPGGTVTLTCRSSTGAVTTSNYANWVQQKPGQAPRGLIGGTNKRAPWTPARFSGSLLGGKAALTITGAQAEDEADYYCALWYSNLWVFGGGTKLTVLGGGGSDKTHTCPPCPAPEAAGPSVFLFPPKPKDTLMISRTPEVTCVVVDVSHEDPEVKFNWYVDGVEVHNAKTKPREEQYNSTYRVVSVLTVLHQDWLNGKEYKCKVSNKALPAPIEKTISKAKGQPREPQVYTLPPSREEMTKNQVSLSCAVKGFYPSDIAVEWESNGQPENNYKTTPPVLDSDGSFFLVSKLTVDKSRWQQGNVFSCSVMHEALHNRFTQKSLSLSPGGGGGSGGGGSGGGGSGGGGSDIQMTQSPSSLSASVGDRVTITCRASQDIRSNLNWYQQKPGGAVKLLIYYTSRLHSGVPSRFSGSGSGTDYTLTISSLQPEDFATYFCQQSEKLPRTFGGGTKVEIR
light: B2 light
notes: Tri-specific antibody: B7H3 Fabs, central CD3 Fv, terminal CD137 Fv; Flexible linker is (G4S)2

Molecular target: T1, B7H3
Assay: ELISA or FCM (Example 2)

Row | Binder | binding result
1 | B1 | binds
2 | B2 | binds
3 | B3 | binds
4 | B4 | binds
